To fix the notation:
B1: h1721-007 (antibody, V domains shown)
VH: EVTLKESGPVLVKPTETLTLTCTVSGFSLSSYGVNWIRQPPGKALEWLGVIWGDGSTNYHSALISRLTISKDTSKSQVVLTLTNMDPVDTATYYCAKNYFYGSRYGYAMDSWGQGTTVTVSS
VL: DIQMTQSPSSLSASVGDRVTITCRASENIYSSLAWYQQKPGKAPKLLVYNAKTLIEGVPSRFSGSGSGTDYTLTISSLQPEDFATYYCQHHYGTPYTFGGGTKVEIK
notes: Only variable regions are tied to this name
B2: h1721-012 (antibody, V domains shown)
VH: EVTLKESGPVLVKPTETLTLTCTVSGFSLSSYGVNWVRQPPGKGLEWLGVIWGDGSTNYHSALISRLTISKDTSKSQVVLTLTNMDPVDTATYYCAKNYFYGSRYGYAMDSWGQGTTVTVSS
VL: DIQMTQSPSSLSASVGDRVTITCRASENIYSSLAWYQQKPGKSPKLLVYNAKTLIEGVPSRFSGSGSGTDYTLTISSLQPEDFATYYCQHHYGTPYTFGGGTKVEIK
notes: also called h1721-0012
B3: h1721-005 (antibody, V domains shown)
VH: EVTLKESGPVLVKPTETLTLTCTVSGFSLSSYGVNWIRQPPGKALEWLAVIWGDGSTNYHSALISRLTISKDTSKSQVVLTMTNMDPVDTATYYCARNYFYGSRYGYAMDSWGQGTTVTVSS
VL: DIQMTQSPSSLSASVGDRVTITCRASENIYSSLAWYQQKPGKAPKLLVYNAKTLIEGVPSRFSGSGSGTDYTLTISSLQPEDFATYYCQHHYGTPYTFGGGTKVEIK
notes: as for B1
B4: h1721-010 (antibody, V domains shown)
VH: EVTLKESGPVLVKPTETLTLTCTVSGFSLSSYGVNWIRQPPGKALEWLGVIWGDGSTNYHSALISRLTISKDTSKSQVVLTMTNMDPVDTATYYCAKNYFYGSRYGYAMDSWGQGTTVTVSS
VL: DIQMTQSPSSLSASVGDRVTITCRASENIYSSLAWYQQKPGKSPKLLVYNAKTLIEGVPSRFSGSGSGTDYTLTISSLQPEDFATYYCQHHYGTPYTFGGGTKVEIK
notes: as for B1
B5: h1721-009 (antibody, V domains shown)
VH: EVTLKESGPVLVKPTETLTLTCTVSGFSLSSYGVNWIRQPPGKALEWLAVIWGDGSTNYHSALISRLTISKDTSKSQVVLTMTNMDPVDTATYYCARNYFYGSRYGYAMDSWGQGTTVTVSS
VL: DIQMTQSPSSLSASVGDRVTITCRASENIYSSLAWYQQKPGKSPKLLVYNAKTLIEGVPSRFSGSGSGTDYTLTISSLQPEDFATYYCQHHYGTPYTFGGGTKVEIK
notes: as for B1
B6: h1721-006 (antibody, V domains shown)
VH: EVTLKESGPVLVKPTETLTLTCTVSGFSLSSYGVNWIRQPPGKALEWLGVIWGDGSTNYHSALISRLTISKDTSKSQVVLTMTNMDPVDTATYYCAKNYFYGSRYGYAMDSWGQGTTVTVSS
VL: DIQMTQSPSSLSASVGDRVTITCRASENIYSSLAWYQQKPGKAPKLLVYNAKTLIEGVPSRFSGSGSGTDYTLTISSLQPEDFATYYCQHHYGTPYTFGGGTKVEIK
notes: as for B1
B7: h1721-011 (antibody, V domains shown)
VH: EVTLKESGPVLVKPTETLTLTCTVSGFSLSSYGVNWIRQPPGKALEWLGVIWGDGSTNYHSALISRLTISKDTSKSQVVLTLTNMDPVDTATYYCAKNYFYGSRYGYAMDSWGQGTTVTVSS
VL: DIQMTQSPSSLSASVGDRVTITCRASENIYSSLAWYQQKPGKSPKLLVYNAKTLIEGVPSRFSGSGSGTDYTLTISSLQPEDFATYYCQHHYGTPYTFGGGTKVEIK
notes: as for B1
B8: h1721-002 (antibody, V domains shown)
VH: EVTLKESGPVLVKPTETLTLTCTVSGFSLSSYGVNWIRQPPGKALEWLGVIWGDGSTNYHSALISRLTISKDTSKSQVVLTMTNMDPVDTATYYCAKNYFYGSRYGYAMDSWGQGTTVTVSS
VL: DIQMTQSPSSLSASVGDRVTITCRASENIYSSLAWYQQKPGKAPKLLIYNAKTLIEGVPSRFSGSGSGTDFTLTISSLQPEDFATYYCQHHYGTPYTFGGGTKVEIK
notes: as for B1
B9: h1721-008 (antibody, V domains shown)
VH: EVTLKESGPVLVKPTETLTLTCTVSGFSLSSYGVNWVRQPPGKGLEWLGVIWGDGSTNYHSALISRLTISKDTSKSQVVLTLTNMDPVDTATYYCAKNYFYGSRYGYAMDSWGQGTTVTVSS
VL: DIQMTQSPSSLSASVGDRVTITCRASENIYSSLAWYQQKPGKAPKLLVYNAKTLIEGVPSRFSGSGSGTDYTLTISSLQPEDFATYYCQHHYGTPYTFGGGTKVEIK
notes: as for B1
B10: h1721-004 (antibody, V domains shown)
VH: EVTLKESGPVLVKPTETLTLTCTVSGFSLSSYGVNWVRQPPGKGLEWLGVIWGDGSTNYHSALISRLTISKDTSKSQVVLTLTNMDPVDTATYYCAKNYFYGSRYGYAMDSWGQGTTVTVSS
VL: DIQMTQSPSSLSASVGDRVTITCRASENIYSSLAWYQQKPGKAPKLLIYNAKTLIEGVPSRFSGSGSGTDFTLTISSLQPEDFATYYCQHHYGTPYTFGGGTKVEIK
notes: as for B1
B11: h1721-001 (antibody, V domains shown)
VH: EVTLKESGPVLVKPTETLTLTCTVSGFSLSSYGVNWIRQPPGKALEWLAVIWGDGSTNYHSALISRLTISKDTSKSQVVLTMTNMDPVDTATYYCARNYFYGSRYGYAMDSWGQGTTVTVSS
VL: DIQMTQSPSSLSASVGDRVTITCRASENIYSSLAWYQQKPGKAPKLLIYNAKTLIEGVPSRFSGSGSGTDFTLTISSLQPEDFATYYCQHHYGTPYTFGGGTKVEIK
notes: as for B1
B12: h1722-007 (antibody, V domains shown)
VH: EVQLVQSGAEVKKPGSSVKVSCKASGGTFSDYWMHWVKQAPGQGLEWIGMLHPNSGTTSFNEKFKIRVTITIDKSTSTAYMELSSLRSEDTAVYYCASDYSGPFAYWGQGTLVTVSS
VL: DIQMTQSPSSLSASVGDRVTITCSASSSVNYIHWYQQKPGKAPKRWIYDTSKLASGVPSRFSGSGSGTDFTLTISSLQPEDFATYYCQQWRSNPLTFGQGTKLEIK
notes: as for B1
B13: h1718-007 (antibody, V domains shown)
VH: EVQLVQSGAEVKKPGASVKVSCKASGYTITDYNMNWVRQAPGQRLEWIGVINPSYGITDYNQNFKDRVTITVDTSASTAYMELSSLRSEDTAVYYCAIQLRLPGYFDVWGQGTTVTVSS
VL: DIQMTQSPSSLSASVGDRVTITCKASQDINNYLNWFQQKPGKAPKTLIYRANRLVDGVPSRFSGSGSGQDYTLTISSLQPEDFATYYCLKYDEFPYTFGGGTKVEIK
notes: as for B1
B14: h1718-014 (antibody, V domains shown)
VH: EVQLVQSGAEVKKPGASVKVSCKASGYTITDYNMNWVRQAPGQRLEWIGVINPSYGITDYNQNFKDRVTITVDTSASTAYMELSSLRSEDTAVYYCAIQLRLPGYFDVWGQGTTVTVSS
VL: DIQMTQSPSSLSASVGDRVTITCKASQDINLYLNWFQQKPGKAPKTLIYRANRLVDGVPSRFSGSGSGQDYTLTISSLQPEDFATYYCLKYDEFPYTFGGGTKVEIK
notes: as for B1
B15: h1718-013 (antibody, V domains shown)
VH: EVQLVQSGAEVKKPGASVKVSCKASGYTITDYNMNWVRQAPGQRLEWIGVINPSYGITDYNQNFKDRVTITVDTSASTAYMELSSLRSEDTAVYYCAIQLRLPGYFDVWGQGTTVTVSS
VL: DIQMTQSPSSLSASVGDRVTITCKASQDINTYLNWFQQKPGKAPKTLIYRANRLVDGVPSRFSGSGSGQDYTLTISSLQPEDFATYYCLKYDEFPYTFGGGTKVEIK
notes: as for B1
B16: h1718-019 (antibody, V domains shown)
VH: EVQLVQSGAEVKKPGASVKVSCKASGYTITDYNMNWVKQAPGQRLEWIGVINPSYGITDYNQNFKDKVTITVDTSASTAYMELSSLRSEDTAVYYCAIQLRLPGYFDVWGQGTTVTVSS
VL: DIQMTQSPSSLSASVGDRVTITCKASQDINTYLNWFQQKPGKAPKTLIYRANRLVDGVPSRFSGSGSGQDYTLTISSLQPEDFATYYCLKYDEFPYTFGGGTKVEIK
notes: as for B1
B17: h1718-018 (antibody, V domains shown)
VH: EVQLVQSGAEVKKPGASVKVSCKASGYTITDYNMNWVKQAPGQRLEWIGVINPSYGITDYNQNFKDKVTITVDTSASTAYMELSSLRSEDTAVYYCAIQLRLPGYFDVWGQGTTVTVSS
VL: DIQMTQSPSSLSASVGDRVTITCKASQDINQYLNWFQQKPGKAPKTLIYRANRLVDGVPSRFSGSGSGQDYTLTISSLQPEDFATYYCLKYDEFPYTFGGGTKVEIK
notes: as for B1
B18: h1718-020 (antibody, V domains shown)
VH: EVQLVQSGAEVKKPGASVKVSCKASGYTITDYNMNWVKQAPGQRLEWIGVINPSYGITDYNQNFKDKVTITVDTSASTAYMELSSLRSEDTAVYYCAIQLRLPGYFDVWGQGTTVTVSS
VL: DIQMTQSPSSLSASVGDRVTITCKASQDINLYLNWFQQKPGKAPKTLIYRANRLVDGVPSRFSGSGSGQDYTLTISSLQPEDFATYYCLKYDEFPYTFGGGTKVEIK
notes: as for B1
B19: h1718-008 (antibody, V domains shown)
VH: EVQLVQSGAEVKKPGASVKVSCKASGYTITDYNMNWVKQAPGQRLEWIGVINPSYGITDYNQNFKDKVTITVDTSASTAYMELSSLRSEDTAVYYCAIQLRLPGYFDVWGQGTTVTVSS
VL: DIQMTQSPSSLSASVGDRVTITCKASQDINNYLNWFQQKPGKAPKTLIYRANRLVDGVPSRFSGSGSGQDYTLTISSLQPEDFATYYCLKYDEFPYTFGGGTKVEIK
notes: as for B1

The assay concerns the target T1, CD96 extracellular region with His tag (CD96-His) (human, UniProt P40200 22-519).
T1 construct: also called CD96-ECD-His; Bio-CD96-His (biotin-labelled form)
T1 sequence: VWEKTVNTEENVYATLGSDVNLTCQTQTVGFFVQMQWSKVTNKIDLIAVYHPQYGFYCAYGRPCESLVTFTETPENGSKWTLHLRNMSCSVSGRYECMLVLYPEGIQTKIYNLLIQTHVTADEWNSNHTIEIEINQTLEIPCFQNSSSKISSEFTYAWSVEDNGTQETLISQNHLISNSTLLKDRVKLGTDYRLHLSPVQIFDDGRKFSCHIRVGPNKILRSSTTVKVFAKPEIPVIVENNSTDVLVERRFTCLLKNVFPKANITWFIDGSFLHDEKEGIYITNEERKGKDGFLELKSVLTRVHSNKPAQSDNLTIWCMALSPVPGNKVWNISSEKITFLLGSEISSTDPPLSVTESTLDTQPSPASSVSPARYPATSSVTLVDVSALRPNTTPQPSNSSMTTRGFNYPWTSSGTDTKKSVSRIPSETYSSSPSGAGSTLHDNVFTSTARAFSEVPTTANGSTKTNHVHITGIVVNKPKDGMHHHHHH
As to the kind of experiment: SPR (Biacore), antibody captured, CD96-ECD-His as mobile phase. The text has this: Protein A biosensor chip was used to capture antibodies to be tested, then CD96 antigen was flowed on the surface of the chip, and real time reaction signal was detected by Biacore to obtain the binding and dissociation curve. After the dissociation of each experimental cycle was completed, the biosensor chip was washed and regenerated with a glycine-hydrochloric acid regeneration solution (pH 1.5).
(In SPR one partner is held on a chip, and binding of the other changes the refractive index at the surface.)
The molecule B1 yielded a Kd of 1.87 nM.
Molecule B2 displayed a dissociation constant Kd of 2.14 nM.
For the molecule B3, the Kd amounted to 2.25 nM.
For B4, the Kd stood at 2.04 nM. The Kd values of the last two molecules are within 1.5-fold of each other.
On to B5, for which the Kd is 2.01 nM.
In the case of B6 it was 2.29 nM.
B7 showed a Kd of 2.12 nM.
The molecule B8 displayed a dissociation constant (Kd) of 2.2 nM.
Molecule B9 had a Kd of 2.22 nM.
The molecule B10 had a Kd of 2 nM.
In turn, B11 came in with a Kd of 2.73 nM.
In the case of B12 it was 1.31 nM.
In the case of B13 it was 3.88 nM.
As for B14, the Kd is 4.31 nM.
Molecule B15 registered a Kd of 4.08 nM.
The molecule B16 registered a Kd of 3.7 nM.
Turning to B17, the affinity, expressed as Kd, was 3.82 nM. The Kd values of the last two molecules are within 1.5-fold of each other.
Take B18: the Kd came out at 3.41 nM.
In the case of B19 it was 3.37 nM.

Broadly, the Kd is the concentration at which binding is half-saturated. Low readings indicate higher affinity, high ones lower affinity.

The values above are taken from patent publication US20200347130A1 (JIANGSU HENGRUI MEDICINE, published 2020).
